T1: PEX14 NTD (1-104) (human, UniProt O75381 1-104)
T1 chain: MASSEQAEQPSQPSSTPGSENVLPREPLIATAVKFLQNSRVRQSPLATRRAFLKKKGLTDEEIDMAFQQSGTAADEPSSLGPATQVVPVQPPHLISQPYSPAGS


Target: T1, PEX14 NTD (1-104)
Assay: ITC

Row | Kd | Binder
1 | 72 nM | ALSENWAQEFLAAGD [PEX5 W1 peptide]
2 | 21 nM | AQAEQWAAEFIQQQG [PEX5 W5 peptide]

From paper PMC11024197 (2024)
